{"source": "patent US20230295324A1", "key": {"[1]": {"target": "human OX40 on cells (CHO-K1/hu OX40) (human) (UniProt P43489)", "sequence (P43489 29-277)": "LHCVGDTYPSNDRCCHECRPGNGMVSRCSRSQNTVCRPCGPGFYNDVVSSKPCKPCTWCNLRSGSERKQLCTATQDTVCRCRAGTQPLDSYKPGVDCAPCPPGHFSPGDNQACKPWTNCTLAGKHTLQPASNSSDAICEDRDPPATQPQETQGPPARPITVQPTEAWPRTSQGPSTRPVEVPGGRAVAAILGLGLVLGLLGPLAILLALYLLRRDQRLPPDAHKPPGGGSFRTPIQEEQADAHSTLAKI", "experiment": "FACS, CHO-K1/hu OX40 cells"}, "[2]": {"target": "human OX40 on cells (CHO-K1/hu OX40) (human) (UniProt P43489)", "experiment": "cell-based or functional assay"}}, "data": [{"substance": "hIgG1 (antibody)", "values": [{"measurement": "EC50", "setting": "[1]", "value": 71, "unit": "nM"}, {"measurement": "Maximum MFI", "setting": "[1]", "value": 6900, "unit": "MFI"}, {"measurement": "Maximum fluorescence signal value, HEK293/OX40/NF-kb luciferase reporter", "setting": "[2]", "value": 2530, "unit": "luminescence"}]}]}
